The source of these data is patent US9527913B2, “Humanized pan-HER antibody compositions” (Symphogen A/S, priority 2012, dated 2016).

In one assay the target is T1, human HER3 (Homo sapiens, UniProt P21860).
T1 construct: against soluble antigen under monovalent conditions; purchased Sino Biologicals
Kind of assay: Kinetic binding analysis by surface plasmon resonance (ProteOn XPR36, IgG capture). To be noted: Human antigen. As for the experimental part:
(§1) Kinetic binding analysis of the purified humanized variants was performed on a ProteOn™ XPR36 biosensor (BioRad, USA) employing an IgG capture assay as described by Canziani et al. (Anal. Biochem. (2004) 325:301-307) that allows for measurement of antibody affinities of whole IgG molecules against soluble antigen under monovalent conditions. Briefly, approximately 5000 resonance units (RU) of a monoclonal mouse anti-human IgG Fc antibody (GE Healthcare, Denmark) was conjugated to a GLC chip surface (BioRad, USA) according to the manufacturer's instructions, followed by capture of individual antibodies of the invention or a negative control on the anti-Fc sensor surface. […] Next, 250 μl monovalent antigen (Sino Biologicals) was injected at a flow rate of 50 μl/min in serial threefold dilutions from 100 nM stock to generate response curves. The chip surface was regenerated between cycles by stripping the captured antibody/antigen complexes off the surface with a 10-second injection of 3 M MgCl2 (GE Healthcare, Denmark) repeated three times. Finally, binding responses were fitted to a Langmuir 1:1 binding model for calculation of the on-rate (kon or ka), off-rate (koff or kd) and affinity (KD) constants using double referencing.
In general terms: Surface plasmon resonance follows binding to a sensor surface in real time, without labels.

The next assay concerns cynomolgus HER3. Described as above. The following applies: Cynomolgus antigen. As for the experimental part:
as §1

For assay [1], the system named is EGFR, HER2 and HER3 in OVCAR-8 cells. Nature of the assay: Western blot of EGFR, HER2 and HER3 in whole cell lysates (Example 6). Type of assay: cell-based, human. The following applies: OVCAR-8, 20 μg/ml, 48 hour.
The target in the next assay is T2, human HER2 (Homo sapiens, UniProt P04626).
T2 construct: against soluble antigen under monovalent conditions; purchased Sino Biologicals
Kind of assay: Kinetic binding analysis by surface plasmon resonance (ProteOn XPR36, IgG capture). The following applies: Human antigen. The protocol: as §1

A further assay concerns the target cynomolgus HER2. The assay is described as above. To be noted: Cynomolgus antigen. The protocol:
as §1

B1: antibody 5082: chimeric parent anti-HER3 antibody disclosed in WO 2012/059857; VH SEQ ID NO: 35, light chain SEQ ID NO: 37 (antibody)
VH: RAEVQLKESGPGLVKPSQSLSLTCSVTGYSITSAYYWNWIRQFPGNKVEWMGYIGYDGRNTYNPSLKNRISITRDTSKNQFFLKLNSLTTEDTATYYCSREGDYGYSDYWGQGTTLTVS
light: LADIVMTQATSSLSASLGDRVTVSCRASQDINNYLNWYQQKPDGTVKLLIYYTSRLQSGVPSRFSGSGSGIDYSLTISNLEQEDFVTYFCQQSETLPWTFGGGTKLELKRTVAAPSVFIFPPSDEQLKSGTASVVCLLNNFYPREAKVQWKVDNALQSGNSQESVTEQDSKDSTYSLSSTLTLSKADYEKHKVYACEVTHQGLSSPVTKSFNRGEC
In the assay with human HER3, B1 came in with a ka of 910000 M⁻¹ s⁻¹ and a kd of 7.3e-05 s⁻¹. Also, in the assay on cynomolgus HER3, the ka is 1.7e+06 M⁻¹ s⁻¹ and the kd came out at 0.00016 s⁻¹. In assay [1], the “EGFR, HER2 and HER3 levels in whole cell lysates” value is “HER2 up-regulation”.

B2: antibody 4517: chimeric parent anti-HER2 antibody disclosed in WO 2012/059857; VH SEQ ID NO: 27, light chain SEQ ID NO: 29 (antibody)
VH: EVQLVESGGDLVKPGGSLKLSCAASGFTFSSYGMSWVRLTPDKRLEWVATISGGGSYTYYPDSVKGRFTISRDIAKSTLYLQMSSLKSEDTAVYYCARKGNYGNYGKLAYWGQGTSVTVS
light: DIQMTQSPASLSVSVGETVTITCRASENIYSNLAWYQQEQGKSPQLLVYAATNLADGVPSRFSGSGSGTQYSLKINSLQSEDFGSYYCQHFWGTPWTFGGGTKLEIKRTVAAPSVFIFPPSDEQLKSGTASVVCLLNNFYPREAKVQWKVDNALQSGNSQESVTEQDSKDSTYSLSSTLTLSKADYEKHKVYACEVTHQGLSSPVTKSFNRGEC
With B2, in the assay with human HER2, the ka came to 260000 M⁻¹ s⁻¹ and the kd worked out at 0.00029 s⁻¹. In addition, at cynomolgus HER2, binding was put at a Kd of 3.7 nM, the ka came out at 230000 M⁻¹ s⁻¹ and the kd was determined as 0.00086 s⁻¹.
